Numbering of substitutions follows the chain as printed. Names may count otherwise.
Tests used:
[1] = biological target: the molecule itself; assay: SEC + other: sucrose density gradient centrifugation; analytical Superdex 200 at 4 °C in 20 mM Tris pH 8.0, 150 mM NaCl, 1 mM DTT, protein injected at 25-30 μM (25-50 μM in the results); 5-20% sucrose gradients, 200,000 x g 4 h 4 °C, protein loaded at ≥20 μM; molecular mass from Stokes radius and sedimentation coefficient
[2] = biological target: T1, mouse β-catenin (GST cleaved) (mouse, UniProt Q02248 1-781); assay: not stated; purified mouse β-catenin mixed with αT-catenin; data not shown; conditions: both partners purified
T1 construct: β-catenin, mouse; Probably the construct of m7 (full length) after TEV cleavage; source: E. coli BL21(DE3), purified (glutathione-agarose, TEV cleavage, Mono Q, S200 gel filtration)
T1 sequence (looked up): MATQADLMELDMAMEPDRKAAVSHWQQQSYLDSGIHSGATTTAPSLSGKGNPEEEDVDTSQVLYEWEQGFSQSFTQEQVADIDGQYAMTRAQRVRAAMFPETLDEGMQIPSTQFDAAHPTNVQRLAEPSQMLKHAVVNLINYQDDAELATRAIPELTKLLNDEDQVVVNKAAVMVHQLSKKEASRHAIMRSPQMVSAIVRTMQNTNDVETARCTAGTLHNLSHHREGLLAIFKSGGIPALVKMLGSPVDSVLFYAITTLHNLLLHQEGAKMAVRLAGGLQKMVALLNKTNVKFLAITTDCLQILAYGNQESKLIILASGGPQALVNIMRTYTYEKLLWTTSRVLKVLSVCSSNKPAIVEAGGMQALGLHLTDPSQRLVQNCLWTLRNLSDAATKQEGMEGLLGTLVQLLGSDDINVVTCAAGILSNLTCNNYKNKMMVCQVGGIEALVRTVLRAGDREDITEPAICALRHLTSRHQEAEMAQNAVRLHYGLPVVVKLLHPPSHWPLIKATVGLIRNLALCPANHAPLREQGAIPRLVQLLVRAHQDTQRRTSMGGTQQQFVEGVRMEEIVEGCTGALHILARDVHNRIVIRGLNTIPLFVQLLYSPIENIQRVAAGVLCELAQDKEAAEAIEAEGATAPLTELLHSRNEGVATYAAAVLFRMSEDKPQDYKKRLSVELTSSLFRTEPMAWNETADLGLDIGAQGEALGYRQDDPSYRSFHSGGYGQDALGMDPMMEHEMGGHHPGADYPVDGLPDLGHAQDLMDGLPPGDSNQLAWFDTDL

[3] = biological target: T2, M. musculus αE-catenin (M. musculus), P26231; assay: SEC + other: sucrose density gradient centrifugation; analytical Superdex 200 at 4 °C in 20 mM Tris pH 8.0, 150 mM NaCl, 1 mM DTT, protein injected at 25-30 μM (25-50 μM in the results); 5-20% sucrose gradients, 200,000 x g 4 h 4 °C, protein loaded at ≥20 μM; molecular mass from Stokes radius and sedimentation coefficient; conditions: remark: other sources report otherwise
T2 chain: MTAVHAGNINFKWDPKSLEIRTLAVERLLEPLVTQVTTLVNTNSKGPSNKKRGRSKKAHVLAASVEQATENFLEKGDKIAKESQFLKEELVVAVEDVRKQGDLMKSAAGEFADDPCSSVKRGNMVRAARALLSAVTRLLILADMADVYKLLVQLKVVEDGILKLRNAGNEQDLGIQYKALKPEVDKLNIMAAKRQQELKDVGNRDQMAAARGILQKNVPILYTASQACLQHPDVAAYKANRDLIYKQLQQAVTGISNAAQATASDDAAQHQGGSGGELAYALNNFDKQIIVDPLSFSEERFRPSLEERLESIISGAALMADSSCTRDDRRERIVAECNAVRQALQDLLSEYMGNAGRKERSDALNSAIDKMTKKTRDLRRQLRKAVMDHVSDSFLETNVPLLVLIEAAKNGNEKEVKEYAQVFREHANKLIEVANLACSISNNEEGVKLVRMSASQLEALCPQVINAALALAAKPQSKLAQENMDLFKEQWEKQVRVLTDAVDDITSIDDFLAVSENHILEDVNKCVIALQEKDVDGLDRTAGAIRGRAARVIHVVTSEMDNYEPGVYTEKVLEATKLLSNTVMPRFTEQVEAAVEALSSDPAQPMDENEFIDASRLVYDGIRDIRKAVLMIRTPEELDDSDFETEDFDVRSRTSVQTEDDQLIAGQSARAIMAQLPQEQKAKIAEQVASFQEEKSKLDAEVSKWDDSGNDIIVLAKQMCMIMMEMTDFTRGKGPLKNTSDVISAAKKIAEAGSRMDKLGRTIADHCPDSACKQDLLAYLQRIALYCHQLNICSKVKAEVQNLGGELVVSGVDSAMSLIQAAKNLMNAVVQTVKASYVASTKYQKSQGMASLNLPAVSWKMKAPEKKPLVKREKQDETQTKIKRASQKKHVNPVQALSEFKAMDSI

B1: αT-catenin V94D ΔABD (aa 1-659) (domain or fragment, M. musculus, UniProt Q65CL1 1-659, looked up)
chain: MSAETPITLNMDTQDLQIQTFTVEKLLEPLIIQVTTLVNCPQNPSNRKKGRSKRARVLLASVEEATWNLLDKGEMIAKEATVLKEELAAALQEDRKESKALKVSAERFTDDPCYLPKREAVVQAARALLAAVTRLLVLADMIDVMCLLQHVSSFQRTFESLKNVSNKSDLQRTYQKLGKELESLDYLAFKRQQDLKSPSQRDEIAGARATLKENSPLLHSICSACLEHSDVASLKASKDTVCEEIQNALDVISNASQGIQNAPAPPEPQAATLGSAFDELENLIVLNPLTVTEEDVRPSLEKRLEAIISGAALLADSSCTRDLHRERIIAECNAIRQALQDLLTEYMSNTGKTERSNTLNTAIVNMSKKTRDLRRQLRKAIIDHISDSFLDTTVPLLVLIEAAKNGRVKEIKDYAAIFHEHTGRLVEVANLACSMSTNEDGIKIVRIAANHLETLCPQIINAALALASRPKSQVVKNTMEMYKRTWEHYIHVLTEAVDDITSIDDFLAVSESHILEDVNKCIIALRDQDADNLDRAAGAIRGRAARVAHIVAGEMDSYEPGAYTEGVMRNVNFLTSTVIPEFVTQVNVALDALSKNSLTALDDNQFVDISKKIYDTIHDIRCSVMMIRTPEELEDVSDLEDDHEVRSHTSIQTEGKTDR
notes: αT-catenin, Mus musculus, N-terminal head region aa 1-659 (ABD aa 660-895 deleted) with V94D; source: E. coli BL21(DE3), purified (glutathione-agarose, TEV cleavage, Mono Q, S200 gel filtration)
- stoichiometry N [1]: 2

B2: M. musculus αT-catenin (wild type, full length) (natural protein, UniProt Q65CL1 1-895, looked up)
chain: MSAETPITLNMDTQDLQIQTFTVEKLLEPLIIQVTTLVNCPQNPSNRKKGRSKRARVLLASVEEATWNLLDKGEMIAKEATVLKEELAAALQEVRKESKALKVSAERFTDDPCYLPKREAVVQAARALLAAVTRLLVLADMIDVMCLLQHVSSFQRTFESLKNVSNKSDLQRTYQKLGKELESLDYLAFKRQQDLKSPSQRDEIAGARATLKENSPLLHSICSACLEHSDVASLKASKDTVCEEIQNALDVISNASQGIQNAPAPPEPQAATLGSAFDELENLIVLNPLTVTEEDVRPSLEKRLEAIISGAALLADSSCTRDLHRERIIAECNAIRQALQDLLTEYMSNTGKTERSNTLNTAIVNMSKKTRDLRRQLRKAIIDHISDSFLDTTVPLLVLIEAAKNGRVKEIKDYAAIFHEHTGRLVEVANLACSMSTNEDGIKIVRIAANHLETLCPQIINAALALASRPKSQVVKNTMEMYKRTWEHYIHVLTEAVDDITSIDDFLAVSESHILEDVNKCIIALRDQDADNLDRAAGAIRGRAARVAHIVAGEMDSYEPGAYTEGVMRNVNFLTSTVIPEFVTQVNVALDALSKNSLTALDDNQFVDISKKIYDTIHDIRCSVMMIRTPEELEDVSDLEDDHEVRSHTSIQTEGKTDRAKMTQLPEAEKEKIAEQVADFKKVKSKLDAEIEIWDDTSNDIIVLAKKMCMIMMEMTDFTRGKGPLKHTTDVIYAAKMISESGSRMDVLARQIANQCPDPPCKQDLLAYLEQIKFYSHQLKICSQVKAEIQNLGGELIVSALDSVTSLIQAAKNLMNAVVQTVKMSYIASTKIIRIQSSAGPRHPVVMWRMKAPAKKPLIKREKPEETWAAVRRGSAKKKIHPVQVMSEFRGRQVY
notes: Cloned into pGEX-TEV; cleaved from GST with tobacco etch virus protease; also called αT (testes)-catenin; WT αT-catenin; source: E. coli BL21(DE3), purified (glutathione-agarose, TEV cleavage, Mono Q, S200 gel filtration)
- stoichiometry N [2]: 1

B3: M. musculus αT-catenin V94D (full length) (natural protein, UniProt Q65CL1 1-895, looked up)
chain: B2 chain with V94D
notes: αT-catenin, Mus musculus, full length, with the ARVC-linked V94D change made by site-directed mutagenesis; here it was put into the mouse protein; also called V94D mutant; V94D homodimer; source: E. coli BL21(DE3), purified (glutathione-agarose, TEV cleavage, Mono Q, S200 gel filtration)
- stoichiometry N [1]: 2

B4: M. musculus αE-catenin, P26231 1-906 (natural protein)
chain: T2 chain
- stoichiometry N [3]: 2

From PMC4957052 (The Journal of Biological Chemistry, 2016)
